Where only a bound is given, the exact number is not on record here.

Two substances from patent US20120331590A1 can be followed below.

Test [1] concerns the target BBMV's from FAW (brush border membrane vesicle proteins of Spodoptera frugiperda larval midgut). In words: homologous competition: unlabeled Cry1Be displacing 0.5 nM 125I Cry1Be from FAW BBMV's.
For test [2] the target is unchanged. In words: heterologous competition: unlabeled Cry1Be against 0.5 nM 125I Cry1Da on FAW BBMV's (the sites that Cry1Da binds, not Cry1Be's own sites).
The target is the same in test [3]. In words: homologous competition: unlabeled Cry1Da displacing 0.5 nM 125I Cry1Da from FAW BBMV's.
Test [4] shares this target. In words: heterologous competition: 1,000 nM unlabeled Cry1Da against 0.5 nM 125I Cry1Be on FAW BBMV's (the sites that Cry1Be binds).

“Cry1Be (unlabeled, truncated Cry toxin) (from UniProt O85805 35-641) (ligand)”: the results for the half-maximal inhibitory concentration (IC50) in test [1] and in test [2] were 2 nM and over 1000 nM, respectively.
On to “Cry1Da (unlabeled, truncated Cry toxin) (from UniProt P19415 28-594) (ligand)”, for which the concentration for half-maximal inhibition (IC50) in test [3] stood at 1.5 nM. Further, in test [4], the percent displacement of 125I Cry1Be was under 50%.

The IC50 is the concentration at which inhibition is half-maximal.
